Experimental data taken from the supplement of paper PMC5998384.

Legend:
HeLa Kyoto [1] = assay: solubility in G1/S (NP-40 vs SDS abundance) (log2 ratio); higher = more soluble; details: cell cycle stage: G1/S
HeLa Kyoto [2] = assay: melting temperature (median over replicates), in situ; higher = more thermally stable
HeLa Kyoto [3] = assay: solubility change mitosis vs G1/S (difference of NP-40 vs SDS log2 ratios) (log2 ratio difference); higher = more soluble in mitosis
HeLa Kyoto [4] = assay: thermal stability score vs G1/S (z-score of summed log2 fold changes over temperatures); higher = more thermally stable than in G1/S
[5] = cell cycle stage: early G1 (4.5 h after nocodazole release)
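Throughout, for melting temperature (median over replicates), in situ: HeLa Kyoto cells synchronized by double thymidine or nocodazole block, proteins quantified by TMT10plex mass spectrometry, three independent biological replicates.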
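Throughout, for solubility change mitosis vs G1/S (difference of NP-40 vs SDS log2 ratios): synchronized HeLa Kyoto cells (double thymidine block for G1/S, nocodazole release for mitosis), protein amounts in NP-40 versus SDS lysates quantified by mass spectrometry, three biological replicates.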
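Throughout, for solubility in G1/S (NP-40 vs SDS abundance): HeLa Kyoto cells arrested at G1/S by double thymidine block, proteins quantified by TMT10plex mass spectrometry in mild NP-40 versus SDS extracts, three biological replicates.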
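Throughout, for thermal stability score vs G1/S (z-score of summed log2 fold changes over temperatures): synchronized HeLa Kyoto cells, proteins quantified by TMT10plex mass spectrometry, three biological replicates, mitosis taken 0.5 h after nocodazole release, G1/S directly after double thymidine block.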

AGO2, sequence (chain, as listed by the source): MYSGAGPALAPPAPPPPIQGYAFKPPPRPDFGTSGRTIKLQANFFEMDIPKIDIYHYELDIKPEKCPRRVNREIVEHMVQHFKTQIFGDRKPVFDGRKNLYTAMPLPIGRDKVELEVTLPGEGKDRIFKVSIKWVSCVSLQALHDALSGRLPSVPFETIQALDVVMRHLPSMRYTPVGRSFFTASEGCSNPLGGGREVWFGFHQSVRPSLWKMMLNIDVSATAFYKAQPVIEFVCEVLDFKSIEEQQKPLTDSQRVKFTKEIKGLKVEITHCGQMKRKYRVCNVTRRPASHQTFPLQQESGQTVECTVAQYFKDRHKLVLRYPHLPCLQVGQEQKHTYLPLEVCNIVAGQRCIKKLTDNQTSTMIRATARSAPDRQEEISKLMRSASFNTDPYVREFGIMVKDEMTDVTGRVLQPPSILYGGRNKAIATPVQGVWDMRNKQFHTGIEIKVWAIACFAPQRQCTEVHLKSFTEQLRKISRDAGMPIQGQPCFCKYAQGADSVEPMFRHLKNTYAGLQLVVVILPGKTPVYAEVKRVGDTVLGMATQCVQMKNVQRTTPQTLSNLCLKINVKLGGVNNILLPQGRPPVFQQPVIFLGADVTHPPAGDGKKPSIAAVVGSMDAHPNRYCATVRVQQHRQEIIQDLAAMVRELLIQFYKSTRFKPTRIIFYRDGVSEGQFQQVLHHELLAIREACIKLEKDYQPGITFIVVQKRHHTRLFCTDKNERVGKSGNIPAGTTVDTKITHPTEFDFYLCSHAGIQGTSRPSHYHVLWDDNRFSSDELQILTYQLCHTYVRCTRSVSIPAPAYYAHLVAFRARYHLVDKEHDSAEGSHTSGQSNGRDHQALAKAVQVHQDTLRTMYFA

Row | Substance | solubility in G1/S (log2) (HeLa Kyoto [1]) | melting temperature (HeLa Kyoto [2]; cell cycle stage: G1/S) [°C] | melting temperature (HeLa Kyoto [2]; cell cycle stage: mitosis) [°C] | solubility change mitosis (log2) (HeLa Kyoto [3]) | thermal stability score (HeLa Kyoto [4]; [5]) | thermal stability score (HeLa Kyoto [4]; cell cycle stage: mitosis)
1 | MSFVAYEELIKEGDTAILSLGHGAMVAVRVQRGAQTQTRHGVLRHSVDLIGRPFGSKVTCGRGGWVYVLHPTPELWTLNLPHRTQILYSTDIALITMMLELRPGSVVCESGTGSGSVSHAIIRTIAPTGHLHTVEFHQQRAEKAREEFQEHRVGRWVTVRTQDVCRSGFGVSHVADAVFLDIPSPWEAVGHAWDALKVEGGRFCSFSPCIEQVQRTCQALAARGFSELSTLEVLPQVYNVRTVSLPPPDLGTGTDGPAGSDTSPFRSGTPMKEAVGHTGYLTFATKTPG [TRMT61A] | -0.0252 | 55.4 | 57.5 | -0.00636 | 0.944 | -0.546
2 | AGO2 | -0.133 | 51.5 | 52.6 | 0.0495 | 2.34 | -0.539
3 | MASPPHQQLLHHHSTEVSCDSSGDSNSVRVKINPKQLSSNSHPKHCKYSISSSCSSSGDSGGVPRRVGGGGRLRRQKKLPQLFERASSRWWDPKFDSVNLEEACLERCFPQTQRRFRYALFYIGFACLLWSIYFAVHMRSRLIVMVAPALCFLLVCVGFFLFTFTKLYARHYAWTSLALTLLVFALTLAAQFQVLTPVSGRGDSSNLTATARPTDTCLSQVGSFSMCIEVLFLLYTVMHLPLYLSLCLGVAYSVLFETFGYHFRDEACFPSPGAGALHWELLSRGLLHGCIHAIGVHLFVMSQVRSRSTFLKVGQSIMHGKDLEVEKALKERMIHSVMPRIIADDLMKQGDEESENSVKRHATSSPKNRKKKSSIQKAPIAFRPFKMQQIEEVSILFADIVGFTKMSANKSAHALVGLLNDLFGRFDRLCEETKCEKISTLGDCYYCVAGCPEPRADHAYCCIEMGLGMIKAIEQFCQEKKEMVNMRVGVHTGTVLCGILGMRRFKFDVWSNDVNLANLMEQLGVAGKVHISEATAKYLDDRYEMEDGKVIERLGQSVVADQLKGLKTYLISGQRAKESRCSCAEALLSGFEVIDGSQVSSGPRGQGTASSGNVSDLAQTVKTFDNLKTCPSCGITFAPKSEAGAEGGAPQNGCQDEHKNSTKASGGPNPKTQNGLLSPPQEEKLTNSQTSLCEILQEKGRWAGVSLDQSALLPLRFKNIREKTDAHFVDVIKEDSLMKDYFFKPPINQFSLNFLDQELERSYRTSYQEEVIKNSPVKTFASPTFSSLLDVFLSTTVFLTLSTTCFLKYEAATVPPPPAALAVFSAALLLEVLSLAVSIRMVFFLEDVMACTKRLLEWIAGWLPRHCIGAILVSLPALAVYSHVTSEYETNIHFPVFTGSAALIAVVHYCNFCQLSSWMRSSLATVVGAGPLLLLYVSLCPDSSVLTSPLDAVQNFSSERNPCNSSVPRDLRRPASLIGQEVVLVFFLLLLLVWFLNREFEVSYRLHYHGDVEADLHRTKIQSMRDQADWLLRNIIPYHVAEQLKVSQTYSKNHDSGGVIFASIVNFSEFYEENYEGGKECYRVLNELIGDFDELLSKPDYSSIEKIKTIGATYMAASGLNTAQAQDGSHPQEHLQILFEFAKEMMRVVDDFNNNMLWFNFKLRVGFNHGPLTAGVIGTTKLLYDIWGDTVNIASRMDTTGVECRIQVSEESYRVLSKMGYDFDYRGTVNVKGKGQMKTYLYPKCTDHRVIPQHQLSISPDIRVQVDGSIGRSPTDEIANLVPSVQYVDKTSLGSDSSTQAKDAHLSPKRPWKEPVKAEERGRFGKAIEKDDCDETGIEEANELTKLNVSKSV [ADCY9] | -0.0462 | 52.3 | 52 | -0.172 | 0.368 | -0.65
4 | MAAATGDPGLSKLQFAPFSSALDVGFWHELTQKKLNEYRLDEAPKDIKGYYYNGDSAGLPARLTLEFSAFDMSAPTPARCCPAIGTLYNTNTLESFKTADKKLLLEQAANEIWESIKSGTALENPVLLNKFLLLTFADLKKYHFYYWFCYPALCLPESLPLIQGPVGLDQRFSLKQIEALECAYDNLCQTEGVTALPYFLIKYDENMVLVSLLKHYSDFFQGQRTKITIGVYDPCNLAQYPGWPLRNFLVLAAHRWSSSFQSVEVVCFRDRTMQGARDVAHSIIFEVKLPEMAFSPDCPKAVGWEKNQKGGMGPRMVNLSECMDPKRLAESSVDLNLKLMCWRLVPTLDLDKVVSVKCLLLGAGTLGCNVARTLMGWGVRHITFVDNAKISYSNPVRQPLYEFEDCLGGGKPKALAAADRLQKIFPGVNARGFNMSIPMPGHPVNFSSVTLEQARRDVEQLEQLIESHDVVFLLMDTRESRWLPAVIAASKRKLVINAALGFDTFVVMRHGLKKPKQQGAGDLCPNHPVASADLLGSSLFANIPGYKLGCYFCNDVVAPGDSTRDRTLDQQCTVSRPGLAVIAGALAVELMVSVLQHPEGGYAIASSSDDRMNEPPTSLGLVPHQIRGFLSRFDNVLPVSLAFDKCTACSSKVLDQYEREGFNFLAKVFNSSHSFLEDLTGLTLLHQETQAAEIWDMSDDETI [ATG7] | -0.177 | 51.3 | 51.5 | -0.0691 | -0.14 | 0.0236
5 | SPTAN1 | -0.956 | 53 | 51.5 | 0.485 | -0.312 | -1.93
6 | ZZEF1 | -0.243 | 51.8 | 51.5 | -0.0476 | 0.459 | 0.456
